Columns and labels:
[1] = substrate: NC(=O)C1=CN([C@@H]2O[C@H](COP(=O)(O)OP(=O)(O)OC[C@H]3O[C@@H](n4cnc5c(N)ncnc54)[C@H](O)[C@@H]3O)[C@@H](O)[C@H]2O)C=CC1; test: ferrozine A562 ferric reductase assay; assay type: biochemical, Paramagnetospirillum magneticum; details: stimulation of ferric reductase activity, electron donor, FAD and ferric citrate present, pH 7.5
[2] = substrate: Cc1cc2nc3c(=O)[nH]c(=O)nc-3n(C[C@H](O)[C@H](O)[C@H](O)COP(=O)(O)OP(=O)(O)OC[C@H]3O[C@@H](n4cnc5c(N)ncnc54)[C@H](O)[C@@H]3O)c2cc1C; test: ferrozine A562 ferric reductase assay; assay type: biochemical, Paramagnetospirillum magneticum; details: stimulation of ferric reductase activity, co-substrates NADH and ferric citrate, pH 7.5, varied: cofactor

B1: Mms6 (Paramagnetospirillum magneticum AMB-1) (protein)
chain: VGGTIWTGKGLGLGLGLGLGAWGPIILGVVGAGAVYAYMKSRDIESAQSDEEVELRDALA
notes: micelles of about 13-15 nm
- Km [1]: 15 µM
- Km [2]: 25 µM
